Measured values: patent US11371056B2, “HPPD variants and methods of use” (BASF Agricultural Solutions Seed US LLC, priority 2017, dated 2022)

System: Pseudomonas fluorescens HPPD polypeptide (wild-type and mutants)
Assay: Coupled HPPD activity assay: turnover and residual turnover in crude HPPD polypeptide extracts with and without Cmpd. 1
Format: biochemical
Conditions: for Residual turnover: presence of 100 μM Cmpd. 1; for Residual turnover / Turnover: changes in absorbance (OD) at 320 nm in the coupled assay, 30 min; for turnover and residual turnover, comparison in words: 100 μM Cmpd. 1, Table 3; for Residual turnover [%]: 100 μM Cmpd. 1, normalised to turnover without inhibitor; for Turnover: absence of Cmpd. 1
Experimental: For the generation of crude HPPD polypeptide extract in micro titer plates (MTP) for the determination of residual activity in inhibition assays, cells were grown in 40 or 150 μl LB medium containing 1% Glucose (Merck, Darmstadt, Germany) and 100 μg/ml ampicillin in a standard 96 well plate (Thermo Fisher Scientific, Waltham, USA) incubated for about 18 h in a humidity incubator at 37° C. 30 μl of this starter culture were added to 600 μl LB medium containing 100 μg/ml ampicillin and 150 mM Hepes (Merck, Darmstadt, Germany) as inoculum for the expression culture in 96 well plates (2 ml deep wells; HJ Bioanalytik, Erkelenz, Germany). The plates were sealed by an aluminium foil, and cells were incubated for 5 h at 37° C. on a plate shaker at 750 rpm. The expression was induced by addition of IPTG in a final concentration of 1 mM followed by further sealed incubation for about 18 h at 30° C. on a plate shaker at 750 rpm.
Cells were harvested by centrifugation at 4° C., 2500 g for 15 min discarding the supernatant. Cell pellets were stored at −80° C. and lysed in 250 μl 1× BugBuster® (Merck, Darmstadt, Germany) in 140 mM Tris (pH 7.8), with 1:25000 diluted BNase® (Qiagen, Hilden, Germany) by incubation of the resuspended cells for 30 min at 4° C. and 1000 rpm. Lysates were clarified by centrifugation for 15 min at 4° C., 2500 g, and 150 μl supernatant were transferred in standard 96 well plate (Thermo Fisher Scientific, Waltham, USA) for subsequent testing in quadruplets.
The activity of HPPD polypeptides was determined in absence or presence of HPPD inhibitors using the coupled HPPD activity assay (FIG. 1).
For the determination of the residual activity, the apparent kinetic constant (kapp) of the determined substrate conversion was measured as kinetic changes in absorbance (OD) at 320 nm in a coupled assay, in that homogentisate (HGA) formed by HPPD from HPP is directly converted into the well absorbing molecule maleylacetoacetate (MAA) by a second enzyme homogentisate dioxygenase (HGD), applied in excess uniformly in all assays (see FIG. 1). The measurements were performed in 384 micro titer plates (Greiner Bio-One GmbH, Frickenhausen, Germany) by plate readers (Tecan infinite M1000 or M1000PRO, Tecan, Männedorf, Switzerland). The kcat/kM ratio of an enzymatic activity is proportional to the apparent kinetic constant kapp and is proportional to kcat/kM*[E] ([E]=enzyme concentration). […] As both kapp measurements in the presence and absence of inhibitor were performed by use of the identical enzyme sample, crude or purified, and thereby at the same enzyme concentration, the enzyme concentration eliminates from the calculation of residual activity and the ratio of both kapp directly indicates the change of kM due to the inhibition.
The assay solution used for determination of residual activities in raw HPPD polypeptide samples was composed by 200 mM sodium phosphate (Merck, Darmstadt, Germany, pH 7.0), 5 mM MgCl2 (Merck, Darmstadt, Germany), 20 mM ascorbate (Sigma-Aldrich, St. Louis, USA), 1 mM DTT (Sigma-Aldrich, St. Louis, USA), 0.1% Pluronic F-68 (Sigma-Aldrich, St. Louis, USA), 40 μM FeSO4 (Sigma-Aldrich, St. […] Louis, USA) and equilibrated for 20 min on ice.

Molecule | time-course of inhibition, inhibitor characteristic (HPPD inhibitor herbicides, FIG. 2: 200 μM HPP, 0, 4 or 13 μM Cmpd. 1) | Residual turnover | turnover and residual turnover, comparison in words | Residual turnover [%] | Turnover
SEQ ID NO:1: reference wild-type Pseudomonas fluorescens HPPD polypeptide (protein, listed as Pseudomonas fluorescens, 4-hydroxyphenylpyruvate dioxygenase (HPPD; Pseudomonas fluorescens) (1)..(358)) MADLYENPMGLMGFEFIEFASPTPGTLEPIFEIMGFTKVATHRSKNVHLYRQGEINLILNNEPNSIASYFAAEHGPSVCGMAFRVKDSQKAYNRALELGAQPIHIDTGPMELNLPAIKGIGGAPLYLIDRFGEGSSIYDIDFVYLEGVERNPVGAGLKVIDHLTHNVYRGRMVYWANFYEKLFNFREARYFDIKGEYTGLTSKAMSAPDGMIRIPLNEESSKGAGQIEEFLMQFNGEGIQHVAFLTDDLVKTWDALKKIGMRFMTAPPDTYYEMLEGRLPDHGEPVDQLQARGILLDGSSVEGDKRLLLQIFSETLMGPVFFEFIQRKGDDGFGEGNFKALFESIERDQVRRGVLTAD | slow and tight binding inhibitor | 0.042 |  |  | 
SEQ ID NO:26 (protein, mutant HPPD polypeptide) MADLYENPMGLMGFEFIEFASPTPGTLEPIFEIMGFTKVATHRSKNVHLYRQGEINLILNNEPNSIASYFAAEHGPSVCGMAFRVKDSQKAYNRALELGAQPIHIDTGPMELNLPAIKGIGGAPLYLIDRFGEGSSIYDIDFVYLEGVERNPVGAGLKVIDHLTHNVYRGRMVYWANFYEKLFNFREARYFDIKGEYTGLTSKAMSAPDGMIRIPLNEESSKGAGQIEEFLMQFNGEGIQHVAFLTDDLVKTWDALKKIGMRFLTAPGDEYYEMLEGRLPDHGEPVDQLQARGILLDGSSVEGDKRLLLQIFSEQLMGPVFFEFIQRKGDDGFGPHSFKVLFESIERDQVRRGVLTAD |  | 0.14 | significant improvement regarding residual turnover | 60 | 0.235
SEQ ID NO:28 (protein, mutant HPPD polypeptide) MADLYENPMGLMGFEFIEFASPTPGTLEPIFEIMGFTKVATHRSKNVHLYRQGEINLILNNEPNSIASYFAAEHGPSVCGMAFRVKDSQKAYNRALELGAQPIHIDTGPMELNLPAIKGIGGAPLYLIDRFGEGSSIYDIDFVYLEGVERNPVGAGLKVIDHLTHNVYRGRMVYWANFYEKLFNFREARYFDIKGEYTGLTSKAMSAPDGMIRIPLNEESSKGAGQIEEFLMQFNGEGIQHVAFLTDDLVKTWDALKKIGMRFLTAPGDEYYEMLEGRLPDHGEPVDQLQARGILLDGSSVEGDKRLLLQIFSETLMGPVFFEFIQRKGDDGFGPHSFKVLFESIERDQVRRGVLTAD |  | 0.102 | decreases the turnover and residual turnover | 50 | 0.203
SEQ ID NO:2 (protein, mutant HPPD polypeptide) MADLYENPMGLMGFEFIEFASPTPGTLEPIFEIMGFTKVATHRSKNVHLYRQGEINLILNNEPNSIASYFAAEHGPSVCGMAFRVKDSQKAYNRALELGAQPIHIDTGPMELNLPAIKGIGGAPLYLIDRFGEGSSIYDIDFVYLEGVERNPVGAGLKVIDHLTHNVYRGRMVYWANFYEKLFNFREARYFDIKGEYTGLTSKAMSAPDGMIRIPLNEESSKGAGQIEEFLMQFNGEGIQHVAFLTDDLVKTWDALKKIGMRFMTAPPDTYYEMLEGRLPDHGEPVDQLQARGILLDGSSVEGDKRLLLQIFSETLMGPVFFEFIQRKGDDGFGPWNFAQLFESIERDQVRRGVLTAD |  | 0.041 |  |  | 0.092
